Laboratory results: the supplement of paper PMC11246515
± gives the standard deviation of the averaged measurements.

Test: total protein half-life in vivo (active degradation + dilution); higher = more stable protein
[1] = E. coli NCM3722 delta-clpP delta-lon delta-hslV, growth: N-lim chemostat, doubling time 6 h
[2] = E. coli NCM3722 delta-clpP, growth: N-lim chemostat, doubling time 6 h
[3] = E. coli NCM3722 delta-hslV, growth: N-lim chemostat, doubling time 6 h
[4] = E. coli NCM3722 delta-lon, growth: N-lim chemostat, doubling time 6 h
[5] = E. coli NCM3722 delta-smpB, growth: N-lim chemostat, doubling time 6 h
[6] = wild type E. coli NCM3722, growth: C-lim chemostat, doubling time 6 h
[7] = wild type E. coli NCM3722, growth: C-lim chemostat, doubling time 12 h
[8] = wild type E. coli NCM3722, growth: N-lim chemostat, doubling time 6 h
[9] = wild type E. coli NCM3722, growth: N-lim chemostat, doubling time 12 h
[10] = wild type E. coli NCM3722, growth: P-lim chemostat, doubling time 6 h
[11] = wild type E. coli NCM3722, growth: P-lim chemostat, doubling time 12 h
[12] = wild type E. coli NCM3722, growth: C-lim chemostat, doubling time 3 h

| Sequence | total protein half-life in vivo [1] [h] | total protein half-life in vivo [2] [h] | total protein half-life in vivo [3] [h] | total protein half-life in vivo [4] [h] | total protein half-life in vivo [5] [h] | total protein half-life in vivo [6] [h] | total protein half-life in vivo [7] [h] | total protein half-life in vivo [8] [h] | total protein half-life in vivo [9] [h] | total protein half-life in vivo [10] [h] | total protein half-life in vivo [11] [h] | total protein half-life in vivo [12] [h] |
| --- | --- | --- | --- | --- | --- | --- | --- | --- | --- | --- | --- | --- |
| MGKHHWKIEKQPEWYVKAVRKTIAALPSGYAEAADWLDVTENALFNRLRADGDQIFPLGWAMVLQRAGGTHFIADAVAQSANGVFVSLPDVEDVDNADINQRLLEVIEQIGSYSKQIRSAIEDGVVEPHEKTAINDELYLSISKLQEHAALVYKIFCISESNDARECAAPGVVASIASGCGETNA | 2.93 ± 0.6 |  |  |  |  |  |  |  |  |  |  |  |
| MGKSIVVVSAVNFTTGGPFTILKKFLAATNNKENVSFIALVHSAKELKESYPWVKFIEFPEVKGSWLKRLHFEYVVCKKLSKELNATHWICLHDITANVVTKKRYVYCHNPAPFYKGILFREILMEPSFFLFKMLYGLIYKINIKKNTAVFVQQFWMKEKFIKKYSINNIIVSRPEIKLSDKSQLTDDDSQFKNNPSELTIFYPAVPRVFKNYELIISAARKLKEQSNIKFLLTISGTENAYAKYIISLAEGLDNVHFLGYLDKEKIDHCYNISDIVCFPSRLETWGLPLSEAKERGKWVLASDFPFTRETLGSYEKKAFFDSNNDDMLVKLIIDFKKGNLKKDISDANFIYRNENVLVGFDELVNFITEEH | 5.98 | > 8 | > 8 | 7.3 ± 0.89 | 5.6 ± 0.084 | 5.53 | 10.5 | 5.39 ± 0.26 | 12.4 ± 0.87 | 6.42 | 14.9 ± 1.6 |  |
| MGKTQPLPILITGGGRRIGLALAWHFINQKQPVIVSYRTHYPAIDGLINAGAQCIQADFSTNDGVMAFADEVLKSTHGLRAILHNASAWMAEKPGAPLADVLACMMQIHVNTPYLLNHALERLLRGHGHAASDIIHFTDYVVERGSDKHIAYAASKAALDNMTRSFARKLAPEVKVNSIAPSLILFNEHDDAEYRQQALNKSLMKTAPGEKEVIDLVDYLLTSCFVTGRSFPLDGGRHLR [P0AFS3] | 5.23 ± 0.36 | 5.33 ± 1.2 | 5.31 ± 0.45 | 5.6 ± 0.53 | 4.85 ± 0.43 | 5.67 ± 0.13 | 11.5 ± 1 | 5.32 ± 0.17 | 9.17 ± 0.28 | 5.56 ± 0.12 | 12.3 ± 0.39 | 3.124 ± 0.021 |
| MGLCSRYKSLTCNSCSMHCQIMPEESPRLQYCANSCFCMWPEESSYFNRGVVEGILTKNHNARLSGYIFVDFSVSFLRLFLEKDWIDYLASTDMGIVLVSDRNMQSLANYWRKHNSAISAVIYNDDGLDVANEKIRQLFIGRYLSFTGGNTLTQMEFTIMGYMVSGYNPYQIAEVLDMDIRSIYAYKQRIEKRMGGKINELFIRSHSVQH | 4.5 ± 2.7 |  |  |  |  |  |  |  |  |  |  |  |
| MGLFDKLKSLVSDDKKDTGTIEIIAPLSGEIVNIEDVPDVVFAEKIVGDGIAIKPTGNKMVAPVDGTIGKIFETNHAFSIESDSGVELFVHFGIDTVELKGEGFKRIAEEGQRVKVGDTVIEFDLPLLEEKAKSTLTPVVISNMDEIKELIKLSGSVTVGETPVIRIKK | 5.14 ± 0.12 | 4.93 ± 0.37 | 4.53 ± 0.15 | 4.82 ± 0.3 | 4.415 ± 0.029 | 5.34 ± 0.22 | 10.6 ± 1.7 | 4.48 ± 0.28 | 7.87 ± 0.1 | 5.64 ± 0.17 | 11.1 ± 0.48 | 3.29 ± 0.1 |
| MGLFNFVKDAGEKLWDAVTGQHDKDDQAKKVQEHLNKTGIPDADKVNIQIADGKATVTGDGLSQEAKEKILVAVGNISGIASVDDQVKTATPATASQFYTVKSGDTLSAISKQVYGNANLYNKIFEANKPMLKSPDKIYPGQVLRIPEE [P0ADE6] | 6.19 ± 0.023 | 5.8 ± 0.83 | 5.979 ± 0.053 | 6.34 ± 0.072 | 5.3 ± 0.33 | 5.55 ± 0.29 | 9.85 ± 1.1 | 4.67 ± 0.066 | 9.41 ± 1.2 | 5.21 ± 0.41 | 11.7 ± 0.15 | 3.18 ± 0.085 |
| MGLMNAFDSQTEDSSPAIGRNLRSRPLARKKLSEMVEEELEQMIRRREFGEGEQLPSERELMAFFNVGRPSVREALAALKRKGLVQINNGERARVSRPSADTIIGELSGMAKDFLSHPGGIAHFEQLRLFFESSLVRYAAEHATDEQIDLLAKALEINSQSLDNNAAFIRSDVDFHRVLAEIPGNPIFMAIHVALLDWLIAARPTVTDQALHEHNNVSYQQHIAIVDAIRRHDPDEADRALQSHLNSVSATWHAFGQTTNKKK [P0A8W0] | 5.49 ± 0.12 | 5.05 ± 0.14 | 3.63 ± 0.045 | 4.53 ± 0.93 | 3.48 ± 0.66 | 4.17 ± 0.12 | 6.39 ± 0.4 | 3.95 ± 0.16 | 5.27 ± 0.066 | 3.59 ± 0.14 | 6.29 ± 0.19 | 2.383 ± 0.0064 |
| MGMENYNPPQEPWLVILYQDDHIMVVNKPSGLLSVPGRLEEHKDSVMTRIQRDYPQAESVHRLDMATSGVIVVALTKAAERELKRQFREREPKKQYVARVWGHPSPAEGLVDLPLICDWPNRPKQKVCYETGKPAQTEYEVVEYAADNTARVVLKPITGRSHQLRVHMLALGHPILGDRFYASPEARAMAPRLLLHAEMLTITHPAYGNSMTFKAPADF [P0AA37] | 4.98 ± 0.17 | 4.59 ± 0.51 | 5.03 ± 0.2 | 4.55 ± 1.1 | 4.63 ± 0.28 | 7.71 |  | 4.66 ± 0.18 | 7.6 | 6.39 | 12.7 | 3.82 |
| MGMIGYFAEIDSEKINQLLESTEKPLMDNIHDTLSGLRRLDIDKRWDFLHFGLTGTSAFDPAKNDPLSRAVLGEHSLEDGIDGFLGLTWNQELAATIDRLESLDRNELRKQFSIKRLNEMEIYPGVTFSEELEGQLFASIMLDMEKLISAYRRMLRQGNHALTVIVG |  |  | 2.19 |  | 1.91 ± 0.022 | 4.04 | 4.57 |  |  | 3.44 ± 0.17 | 6.19 ± 0.12 | 1.89 |
